Where two headings read alike, the source gives them in different places.
Legend:
[1] = target: nucleocapsid protein N (Rift Valley fever virus, UniProt P21700 1-245); test: filter binding
Target sequence in this assay (P21700 whole entry): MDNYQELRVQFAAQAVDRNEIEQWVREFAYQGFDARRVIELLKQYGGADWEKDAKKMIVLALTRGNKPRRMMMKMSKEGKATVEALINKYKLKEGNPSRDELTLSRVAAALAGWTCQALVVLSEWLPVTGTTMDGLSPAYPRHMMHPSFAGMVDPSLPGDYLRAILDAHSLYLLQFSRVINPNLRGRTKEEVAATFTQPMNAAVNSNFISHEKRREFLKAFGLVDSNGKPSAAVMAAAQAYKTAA

[2] = target: nucleocapsid protein N (Rift Valley fever virus, UniProt P21700 1-245); test: filter binding; remark: listed apart in the source
Target sequence in this assay (P21700 whole entry): as above

B1: MBE87 (structured_RNA)
RNA: GGCAUUACGGCCGGGAGCCAGUAUUACUGAUUGAUGAUUCUGUGGGCGUCUUCUAG
[1]
  binding result: binds

B2: AS1 (AS-1) (structured_RNA)
RNA: GGUCGACAGGCUAGGCCGUCUAAAGCUGAUUGCUCCCGGGGAAUAAUUAUUGACAGCU
[2]
  binding result: binds

B3: AS4 (AS-4) (structured_RNA)
RNA: GGGGCGCGUUCUAAACAACGAUUGCCGACAAGACGAUUUCUGGGUCAAACUUUAUUCG
[2]
  binding result: binds

B4: AS2 (AS-2) (structured_RNA)
RNA: GGAGUAUCUGUCGGCAUCACGCUUGGAUGUGCAAGGCUCUUUAUCUCUAUUAUGCAAG
[2]
  binding result: binds
